The values below come from paper doi:10.1101/2021.07.27.453956 (bioRxiv, 2021).

B1: TwinStrep-MBP-Panx, full length, recombinant (SFiNX subunit) (natural protein)
chain: MEAPMKLEVKVENYVECGINEDEATPLREGTGETPPHAFACGVPMSGSGWCSDPEDGNLVHHSATPTSDEHLQPSLDTIEPKMEPKIKEDADNAMLDSLLADPFENNSPATLQTPADVKPNAMLDSVEQGSRSCELLPSEFSKRENLDDMDLFSLKAAKTLVPDEQQSFPQNDTPIDDPEAADLIAQKREILKMLEMTAENRKVKHKKKKHKKERSHRSNKHQEESRKRNHSNSSSDEGADDKNQFDCDYRGHKKYKNRRGSASSQNESSKERKLRDTELDYVPVRPDEHFIRPIKFSNLIERRPPQVEFNTVNLSKADKRSLAVARAELVLEQIQQKANKEEPPEFHMVDTICKLPVNESFRNQDCFENPSPICNNMNVVYKFNSTPGTRIDLSKWGLETVPEATKRLLRLLGIDVARLKELQSTVKPSQRILKLKKEQLEQGLAPTEEQETATLYKNAATQTERRTATRDAGTQVRLESKLNGAFWQNPHFDPMNLTQHQSNVMLALQEIYQTLPSATMAVKLSRALAPALAIIKGRQP
B2: His6-Ctp, recombinant (SFiNX subunit) (natural protein)
chain: MSDRKAVIKNADMSEEMQQDAVDCATQALEKYNIEKDIAAYIKKEFDKKYNPTWHCIVGRNFGSYVTHETRHFIYFYLGQVAILLFKSG

Assay [1] concerns the target Sov NTD (aa 14-90), C-terminal His tagged (D. melanogaster). Briefly: ITC.
The target of assay [2] is Nxf2–Nxt1 heterodimer, recombinant (SFiNX subunits) (Drosophila, UniProt Q9VV73;Q9V3H8). Nature of the assay: co-purification of a recombinant complex.
Assay [3] concerns the target B1. Nature of the assay: co-purification of a recombinant complex.

Chain of Nxf2–Nxt1 heterodimer, recombinant (SFiNX subunits) (Q9VV73 whole entry, one chain of several): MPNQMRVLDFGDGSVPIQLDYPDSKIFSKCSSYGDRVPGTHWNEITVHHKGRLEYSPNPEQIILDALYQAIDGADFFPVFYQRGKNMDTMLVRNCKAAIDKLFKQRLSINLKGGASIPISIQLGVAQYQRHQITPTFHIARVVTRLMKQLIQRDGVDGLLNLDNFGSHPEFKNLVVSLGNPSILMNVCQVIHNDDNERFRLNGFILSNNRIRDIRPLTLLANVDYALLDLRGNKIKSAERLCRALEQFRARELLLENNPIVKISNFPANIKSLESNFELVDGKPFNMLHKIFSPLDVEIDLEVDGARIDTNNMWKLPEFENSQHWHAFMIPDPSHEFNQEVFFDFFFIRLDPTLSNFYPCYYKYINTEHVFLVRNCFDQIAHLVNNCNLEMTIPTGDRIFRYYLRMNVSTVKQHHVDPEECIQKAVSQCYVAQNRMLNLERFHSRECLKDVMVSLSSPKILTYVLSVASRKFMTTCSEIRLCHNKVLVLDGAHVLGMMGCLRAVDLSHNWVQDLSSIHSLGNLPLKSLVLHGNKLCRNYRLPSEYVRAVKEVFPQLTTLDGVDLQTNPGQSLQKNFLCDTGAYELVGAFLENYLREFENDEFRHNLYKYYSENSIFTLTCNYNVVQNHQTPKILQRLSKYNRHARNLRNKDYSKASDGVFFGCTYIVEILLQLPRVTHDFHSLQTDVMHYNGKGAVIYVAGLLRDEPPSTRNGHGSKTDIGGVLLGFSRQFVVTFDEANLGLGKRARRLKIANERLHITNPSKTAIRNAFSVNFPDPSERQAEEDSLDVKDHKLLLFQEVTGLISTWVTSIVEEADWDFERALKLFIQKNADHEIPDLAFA

Turning to “His-SUMO tagged Panx LxxLL peptide (aa 82-108), wildtype (from UniProt Q9W2H9 82-108)”, the Kd in assay [1] amounted to 870 nM.
As to B1, the binding result in assay [2] is “binds”.
As to B2, the binding result in assay [3] is given as “binds”.
